From patent US20250262210A1 (TRUSTEES OF COLUMBIA UNIVERSITY IN THE CITY OF NEW YORK, published 2025)

What was measured:
Experiment in all cases: IP/MS, LZTR1 R810W-FLAG, U87
ABR = target: T1, ABR (human, UniProt Q12979 1-859, limits assumed)
T1 sequence (looked up): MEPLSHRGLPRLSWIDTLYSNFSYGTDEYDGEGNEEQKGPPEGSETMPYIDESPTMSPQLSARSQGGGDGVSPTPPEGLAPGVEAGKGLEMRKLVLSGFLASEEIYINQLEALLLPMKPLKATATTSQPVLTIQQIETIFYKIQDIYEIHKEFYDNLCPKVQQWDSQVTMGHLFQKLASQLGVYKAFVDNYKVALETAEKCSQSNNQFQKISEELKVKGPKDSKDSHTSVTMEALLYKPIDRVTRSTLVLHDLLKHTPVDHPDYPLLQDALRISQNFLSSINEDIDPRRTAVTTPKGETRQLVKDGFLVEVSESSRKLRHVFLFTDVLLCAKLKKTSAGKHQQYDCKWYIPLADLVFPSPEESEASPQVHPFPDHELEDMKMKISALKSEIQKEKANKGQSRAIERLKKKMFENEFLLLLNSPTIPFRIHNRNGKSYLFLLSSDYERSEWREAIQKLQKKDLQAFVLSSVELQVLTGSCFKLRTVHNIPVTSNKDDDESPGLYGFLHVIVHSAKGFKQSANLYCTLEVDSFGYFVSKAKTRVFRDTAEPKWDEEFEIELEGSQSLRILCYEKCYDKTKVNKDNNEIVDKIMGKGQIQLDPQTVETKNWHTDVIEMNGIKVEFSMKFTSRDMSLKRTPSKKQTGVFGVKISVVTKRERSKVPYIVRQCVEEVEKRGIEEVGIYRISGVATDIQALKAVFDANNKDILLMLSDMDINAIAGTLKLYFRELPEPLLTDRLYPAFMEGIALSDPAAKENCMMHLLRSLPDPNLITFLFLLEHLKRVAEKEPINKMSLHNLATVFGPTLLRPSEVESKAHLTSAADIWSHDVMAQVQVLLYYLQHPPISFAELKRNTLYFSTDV
Method in brief: (§1)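 Read-out: spectral counts from LC-MS/MS (Orbitrap Fusion) after MaxQuant identification. Variable modifications were Met oxidation, protein N-terminal acetylation and N/Q deamidation.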

RAPH1 = target: T2, RAPH1 (human, UniProt Q70E73 1-1250, limits assumed)
T2 sequence (looked up): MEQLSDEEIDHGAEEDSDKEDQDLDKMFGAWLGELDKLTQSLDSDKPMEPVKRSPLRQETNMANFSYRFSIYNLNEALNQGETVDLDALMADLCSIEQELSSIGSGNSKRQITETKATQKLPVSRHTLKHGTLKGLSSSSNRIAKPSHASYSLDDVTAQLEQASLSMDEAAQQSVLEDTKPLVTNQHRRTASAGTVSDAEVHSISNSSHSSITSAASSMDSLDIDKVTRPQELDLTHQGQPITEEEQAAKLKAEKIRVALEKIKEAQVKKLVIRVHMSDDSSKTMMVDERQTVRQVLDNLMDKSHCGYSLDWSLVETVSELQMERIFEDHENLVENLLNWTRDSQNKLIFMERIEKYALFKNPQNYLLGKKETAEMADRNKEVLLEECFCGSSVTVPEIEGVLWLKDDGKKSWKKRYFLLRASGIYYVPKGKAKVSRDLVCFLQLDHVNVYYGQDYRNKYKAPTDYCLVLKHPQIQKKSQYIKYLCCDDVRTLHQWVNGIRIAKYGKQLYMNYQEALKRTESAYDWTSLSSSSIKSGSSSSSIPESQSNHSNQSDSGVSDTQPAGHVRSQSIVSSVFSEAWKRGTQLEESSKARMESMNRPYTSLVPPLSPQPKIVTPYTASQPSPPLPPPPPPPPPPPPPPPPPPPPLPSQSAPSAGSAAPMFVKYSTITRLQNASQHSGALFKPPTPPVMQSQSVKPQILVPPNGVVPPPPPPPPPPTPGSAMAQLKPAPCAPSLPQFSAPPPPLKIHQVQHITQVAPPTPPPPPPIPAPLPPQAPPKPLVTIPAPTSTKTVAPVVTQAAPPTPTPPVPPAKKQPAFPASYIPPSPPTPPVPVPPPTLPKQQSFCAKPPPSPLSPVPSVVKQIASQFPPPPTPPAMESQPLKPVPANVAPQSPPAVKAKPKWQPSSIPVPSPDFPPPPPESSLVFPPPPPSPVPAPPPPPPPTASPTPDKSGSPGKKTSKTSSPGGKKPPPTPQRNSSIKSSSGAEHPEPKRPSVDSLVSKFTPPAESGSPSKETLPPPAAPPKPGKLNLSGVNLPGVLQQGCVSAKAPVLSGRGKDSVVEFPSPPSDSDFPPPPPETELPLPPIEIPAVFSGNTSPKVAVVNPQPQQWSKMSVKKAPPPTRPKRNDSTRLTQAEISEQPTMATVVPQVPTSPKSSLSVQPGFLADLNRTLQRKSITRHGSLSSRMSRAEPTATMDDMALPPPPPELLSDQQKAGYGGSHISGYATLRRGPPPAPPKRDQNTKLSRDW
Method in brief: as §1

KIF1B = KIF1B (human, UniProt O60333 2-1816, limits assumed)
KIF1B, sequence (O60333 2-1816 limits assumed): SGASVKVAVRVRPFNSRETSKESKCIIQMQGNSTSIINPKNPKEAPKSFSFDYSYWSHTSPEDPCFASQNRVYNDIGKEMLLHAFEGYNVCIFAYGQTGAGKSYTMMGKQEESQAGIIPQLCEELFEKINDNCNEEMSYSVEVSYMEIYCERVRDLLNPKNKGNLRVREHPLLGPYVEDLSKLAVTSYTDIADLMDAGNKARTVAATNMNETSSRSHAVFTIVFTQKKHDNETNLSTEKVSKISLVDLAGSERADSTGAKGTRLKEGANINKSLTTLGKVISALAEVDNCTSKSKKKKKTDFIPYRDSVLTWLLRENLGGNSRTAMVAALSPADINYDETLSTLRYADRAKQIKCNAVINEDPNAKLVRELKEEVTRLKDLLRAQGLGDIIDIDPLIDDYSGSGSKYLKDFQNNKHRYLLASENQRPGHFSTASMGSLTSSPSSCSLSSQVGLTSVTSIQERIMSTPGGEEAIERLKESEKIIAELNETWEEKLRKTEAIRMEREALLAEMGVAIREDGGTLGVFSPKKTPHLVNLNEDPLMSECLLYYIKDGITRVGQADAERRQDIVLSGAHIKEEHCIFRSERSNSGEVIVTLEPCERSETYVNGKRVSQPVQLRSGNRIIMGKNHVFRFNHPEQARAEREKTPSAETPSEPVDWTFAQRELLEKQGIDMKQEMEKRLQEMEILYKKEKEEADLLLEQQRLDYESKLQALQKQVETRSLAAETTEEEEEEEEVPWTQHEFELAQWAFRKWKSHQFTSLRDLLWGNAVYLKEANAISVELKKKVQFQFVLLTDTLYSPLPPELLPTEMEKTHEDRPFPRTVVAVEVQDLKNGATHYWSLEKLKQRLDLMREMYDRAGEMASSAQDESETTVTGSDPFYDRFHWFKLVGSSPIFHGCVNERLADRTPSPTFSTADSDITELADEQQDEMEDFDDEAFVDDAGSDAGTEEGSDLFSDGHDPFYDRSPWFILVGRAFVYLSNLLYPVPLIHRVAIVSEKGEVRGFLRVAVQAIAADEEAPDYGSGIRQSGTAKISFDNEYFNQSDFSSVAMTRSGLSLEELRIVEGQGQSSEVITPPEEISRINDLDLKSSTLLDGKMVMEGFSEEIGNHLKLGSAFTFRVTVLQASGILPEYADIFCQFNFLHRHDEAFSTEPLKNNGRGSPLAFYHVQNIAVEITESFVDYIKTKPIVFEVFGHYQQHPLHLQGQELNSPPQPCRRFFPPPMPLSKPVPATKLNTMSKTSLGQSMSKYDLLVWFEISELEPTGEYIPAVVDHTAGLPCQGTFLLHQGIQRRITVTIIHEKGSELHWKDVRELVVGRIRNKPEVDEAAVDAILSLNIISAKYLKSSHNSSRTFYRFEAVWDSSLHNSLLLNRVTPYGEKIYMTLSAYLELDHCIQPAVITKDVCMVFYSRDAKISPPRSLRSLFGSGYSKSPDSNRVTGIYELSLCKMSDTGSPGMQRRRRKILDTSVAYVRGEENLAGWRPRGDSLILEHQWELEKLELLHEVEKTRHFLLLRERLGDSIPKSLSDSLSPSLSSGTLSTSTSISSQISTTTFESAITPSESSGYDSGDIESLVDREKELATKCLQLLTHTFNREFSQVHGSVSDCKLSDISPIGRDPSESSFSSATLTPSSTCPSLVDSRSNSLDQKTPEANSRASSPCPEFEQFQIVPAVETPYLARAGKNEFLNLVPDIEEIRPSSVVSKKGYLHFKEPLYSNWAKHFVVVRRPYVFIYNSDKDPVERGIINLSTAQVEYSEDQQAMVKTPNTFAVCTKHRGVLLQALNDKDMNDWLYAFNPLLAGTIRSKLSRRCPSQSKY
Method in brief: as §1

Measured: binding result

B1: LZTR1 R810W-FLAG (other, human, UniProt Q8N653 1-840, looked up)
chain: MAGPGSTGGQIGAAALAGGARSKVAPSVDFDHSCSDSVEYLTLNFGPFETVHRWRRLPPCDEFVGARRSKHTVVAYKDAIYVFGGDNGKTMLNDLLRFDVKDCSWCRAFTTGTPPAPRYHHSAVVYGSSMFVFGGYTGDIYSNSNLKNKNDLFEYKFATGQWTEWKIEGRLPVARSAHGATVYSDKLWIFAGYDGNARLNDMWTIGLQDRELTCWEEVAQSGEIPPSCCNFPVAVCRDKMFVFSGQSGAKITNNLFQFEFKDKTWTRIPTEHLLRGSPPPPQRRYGHTMVAFDRHLYVFGGAADNTLPNELHCYDVDFQTWEVVQPSSDSEVGGAEVPERACASEEVPTLTYEERVGFKKSRDVFGLDFGTTSAKQPTQPASELPSGRLFHAAAVISDAMYIFGGTVDNNIRSGEMYRFQFSCYPKCTLHEDYGRLWESRQFCDVEFVLGEKEECVQGHVAIVTARSRWLRRKITQARERLAQKLEQEAAPVPREAPGVAAGGARPPLLHVAIREAEARPFEVLMQFLYTDKIKYPRKGHVEDVLLIMDVYKLALSFQLCRLEQLCRQYIEASVDLQNVLVVCESAARLQLSQLKEHCLNFVVKESHFNQVIMMKEFERLSSPLIVEIVRRKQQPPPRTPLDQPVDIGTSLIQDMKAYLEGAGAEFCDITLLLDGHPRPAHKAILAARSSYFEAMFRSFMPEDGQVNISIGEMVPSRQAFESMLRYIYYGEVNMPPEDSLYLFAAPYYYGFYNNRLQAYCKQNLEMNVTVQNVLQILEAADKTQALDMKRHCLHIIVHQFTKVSKLPTLWSLSQQLLLDIIDSLASHISDKQCAELGADI
notes: Stably expressed in U87 cells by lentivirus; also called LZTR1-FLAG-R810W; LZTR1 RW; not shown: FLAG tag
binds: all assays above
